According to article PMC3428507 (Journal of molecular biology, 2012):
Read-outs that look alike come from different tables or passages of the source. Each block holds one binder with its values, some of them ahead of it.

B1: Pf1 PHD1/MBD (residues 48–241) (domain or fragment, human, UniProt Q96QT6 48-241, looked up)
chain: RRSGRATNHDSCDSCKEGGDLLCCDHCPAAFHLQCCNPPLSEEMLPPGEWMCHRCTVRRKKREQKKELGHVNGLVDKSGKRTTSPSSDTDLLDRSASKTELKAIAHARILERRASRPGTPTSSASTETPTSEQNDVDEDIIDVDEEPVAAEPDYVQPQLRRPFELLIAAAMERNPTQFQLPNELTCTTALPGSS

Columns and labels:
Test in all cases: NMR titration
[1] = target: T1, full-length MRG15 (residues 1–323) (human, UniProt Q9UBU8-2 1-323)
[2] = target: T1, full-length MRG15 (residues 1–323); remark: listed apart in the source
[3] = target: B1

Binder: B1
binding result [1]: binds

binding result [2]: binds
Binder: DYVQPQLRRPFELLIAAAMERNPTQFQLPNELTCTTALPGSS (domain or fragment, human, UniProt Q96QT6 200-241, looked up) [MRG-binding domain of Pf1 (residues 200–241)]

binding result [3]: binds
B2: MRG domain of MRG15 (residues 155–323) (domain or fragment)
chain: not shown
